Assays:
[1] = target: Spa47 (Shigella T3SS ATPase), wild-type (S. flexneri) (UniProt P0A1C1)
[2] = target: Spa47 (Shigella T3SS ATPase), wild-type (S. flexneri) (UniProt P0A1C1); remark: listed apart in the source

## Spa47 (Shigella T3SS ATPase), wild-type (from UniProt P0A1C1 1-430) (enzyme)
[1]
  ATPase activity of the Spa47 oligomer formed in vitro by concentrating the monomer to ~200 μM ((μmol ADP/min) /mg Spa47): 1.5
  ATPase activity of the isolated monomeric Spa47 before its conversion to oligomer ((μmol ADP/min) /mg Spa47): 0.11
[2]
  ATP hydrolysis rate (normalized for enzyme concentration) of monomeric Spa47 as a function of enzyme concentration: 3 fold
